Test results as given in US20160311886A1, “Constructs Binding to Phosphatidylserine and Their Use in Disease Treatment and Imaging” (Board of Regents, The University of Texas System, priority 2005, published 2016).

B1: 3G4: Mouse IgG3 kappa monoclonal antibody to PS and anionic phospholipids; binding mediated by β2-glycoprotein I (antibody, listed as Mus musculus)
VH: MGWTWIFILILSVTTGVHSEVQLQQSGPELEKPGASVKLSCKASGYSFTGYNMNWVKQSHGKSLEWIGHIDPYYGDTSYNQKFRGKATLTVDKSSSTAYMQLKSLTSEDSAVYYCVKGGYYGHWYFDVWGAGTTVTVSSATTTAPSVYPLVP
VL: MDMRAPAQILGFLLLLFPGTRCDIQMTQSPSSLSASLGERVSLTCRASQDIGSSLNWLQQGPDGTIKRLIYATSSLDSGVPKRFSGSRSGSDYSLTISSLESEDFVDYYCLQYVSSPPTFGAGTKLELKRADAAPTVFIFGRIP

Legend:
[1] = test system: IL-1α-stimulated bEnd.3 cells; assay: Coaguligand-induced Factor Xa formation, chromogenic assay; assay type: cell-based, mouse; settings: 10 μg per ml Annexin V
Procedure: The ability of Annexin V to affect Factor Xa formation induced by coaguligand was determined by a chromogenic assay. IL-1α-stimulated bEnd.3 cells were incubated with anti-VCAM-·tTF and permeabilized by saponin. Annexin V was added at concentrations ranging from 0.1 to 10 μg/ml and cells were incubated for 30 min. before addition of diluted Proplex T. The amount of Factor Xa generated in the presence or absence of Annexin V was determined. Each treatment was performed in duplicate and repeated at least twice.

Meth A fibrosarcoma = assay: 3G4 tumor treatment; assay type: in vivo, mouse
Procedure: Treatment was repeated 3 times a week. Animals were monitored twice a week for tumor measurements.
Groups of 8-10 female SCID mice were injected subcutaneously with 2×10^7 L540 cells or orthotopically with 1×10^7 MDA-MB-435 or MDA-MB-231 cells. BALB/c mice were injected subcutaneously with 1×10^6 Meth A cells. Tumors were allowed to grow to an average diameter of 0.8-1 cm (L540), 0.6-0.7 cm (MDA-MB-435), 0.5-0.7 cm (MDA-MB-231), or <0.1 cm (Meth A). […] Animals were monitored three times a week for tumor size and body weight. Mice were sacrificed when tumors in control mice reached a diameter of 1.5-2 cm.

tumor cells = assay: Direct inhibitory effects of 3G4 on tumor cells in vitro; assay type: cell-based

Molecule	inhibition of factor Xa production [1] [%]	mice with long-term complete remissions (Meth A fibrosarcoma; Meth A-bearing mice) [%]	retardation of tumor growth (Meth A fibrosarcoma; syngeneic Meth A fibrosarcoma) [%]	direct inhibitory effect on tumor cells (tumor cells)
Annexin V: High affinity PS binding ligand; natural ligand binding anionic phospholipids and PE	58	–	–	–
B1	–	50	90	No direct inhibitory effect on tumor cells was observed
